pKd: −log10 of the molar value.
Tests used:
Assay in all cases: SPR; IgG amine-coupled to CM5 chip (Biacore 3000); GST-ABD or GST at 54, 108, 216 and 432 nM, 10 μl/min for 7 min; 25 °C; PBS running buffer; 1:1 Langmuir model
Rabbit IgG (rabbit) = target: Rabbit IgG (rabbit)
Mouse IgG (mouse) = target: Mouse IgG (mouse)
Rat IgG (rat) = target: Rat IgG (rat)

Question: For “GST-ABD (recombinant secondary antibody mimic; glutathione-S-transferase fused through a linker to the antibody-binding domain of protein A) (domain or fragment)”, which Ka (Rabbit IgG (rabbit)) is on record?
Answer: Its Ka is 7.6e+08 M⁻¹.

Question: And the pKd (Rabbit IgG (rabbit))?
Answer: The pKd was 8.88.

Question: What about the koff (Rabbit IgG (rabbit)) of the same substance?
Answer: Its koff is 9e-05 s⁻¹.

Question: What about the kon (Rabbit IgG (rabbit)) of the same substance?
Answer: The kon was 66600 M⁻¹ s⁻¹.

Question: What about the Ka (Mouse IgG (mouse)) of the same substance?
Answer: The Ka was 5.9e+07 M⁻¹.

Question: What about the pKd (Mouse IgG (mouse)) of the same substance?
Answer: The pKd was 7.77.

Question: And the koff (Mouse IgG (mouse))?
Answer: The koff was 0.00107 s⁻¹.

Question: And the kon (Mouse IgG (mouse))?
Answer: The kon was 63800 M⁻¹ s⁻¹.

Question: And the Ka (Rat IgG (rat))?
Answer: The Ka was 2.3e+08 M⁻¹.

Question: What about the pKd (Rat IgG (rat)) of the same substance?
Answer: Its pKd is 8.36.

Question: And the koff (Rat IgG (rat))?
Answer: The koff was 0.00022 s⁻¹.

Question: And the kon (Rat IgG (rat))?
Answer: The kon was 51800 M⁻¹ s⁻¹.
